Test results taken from patent US7696175.

What was measured:
[1] = target: intracellular antigens (TNT) in paraformaldehyde fixed Raji lymphoma cells; experiment: fixed-cell radioimmunoassay: 125I-labeled fusion protein on paraformaldehyde-fixed Raji lymphoma cells, Scatchard analysis, Ka = -(slope/n) with n = 2
[2] = target: intracellular antigens (TNT) in paraformaldehyde fixed Raji lymphoma cells; experiment: fixed-cell radioimmunoassay on Raji cells, compared with the literature value for NHS76

Q: How did the Ka [1] turn out when “B7.1/NHS76 fusion protein (from UniProt P33681 35-242)” was run?
A: The Ka was 2.15e+08 M⁻¹.

Q: What about the affinity relative to parental NHS76 (fold of parental NHS76) [2] of the same substance?
A: Its affinity relative to parental NHS76 (fold of parental NHS76) is 0.14.
